± gives the half width of the 95% confidence interval.
Test: folding stability dG unfold (combined trypsin and chymotrypsin); higher = more stable
In short: (§1)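 Unfolding free energy was derived, per protease or combined, by relating Bayesian-fitted K50 values from sequencing counts to a sequence-predicted unfolded-state K50 and a shared folded-state K50. The underlying digests exposed cysteine-free mini-proteins under 80 residues, in a PA-tagged cDNA display construct, to trypsin and chymotrypsin at 11 threefold-diluted concentrations and to a no-protease condition. A filter kept only designs with AlphaFold2 dimer inter-PAE above 15.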

In order of rising “folding stability dG unfold” value:
1. SAGKEIIIPFRDIPPKYIKNQLKKFPPGKEIRIMFPGPEVADYLKEKGFPVRPERIKPITPDDMAKMMNSAG [r5_354_TrROS]  -0.258 ± 0.28 kcal/mol
2. SAGGKPLTVEDAKELAESLAKPLKEELGLGNVKILAAPVEVGGEEGKPAEVRIGFLFDLSEDGEFVGSAGGS [r16_751_TrMRF]  -0.112 ± 0.23 kcal/mol
3. SAGGSAGGSPDVVVPATLTFPLDAVAKAEFYPDGTVKVTFPDNTVALAKVEGGVVTDVRLAPASAGGSAGGS [r12_749_TrMRF]  0.11 ± 0.095 kcal/mol
4. SAGGSAGGSAGGSELIFKTEDGYYVKVKLKNGKTIVFPAENLEELKKLNVEKVEVVPAKSAGGSAGGSAGGS [r4_348_TrROS_Hall]  0.684 ± 0.064 kcal/mol
5. SAGGSAGPLERKVIVRTAPYTSPEEGEAYAEETKLAIASKLPESEKVTVEVTWDPETNTVTATIVSSAGGSA [r15_981_JUSTAS]  0.722 ± 0.16 kcal/mol
6. SAGGSAMNPKLEALPEVEITEEKTEEYKTAENKKLLVKEYKSNAEPGKTYKVIYDPETGKVLSVEESAGGSA [r15_66_JUSTAS]  0.737 ± 0.1 kcal/mol
7. SAGGSAGGEIPADAEIEEFEFGGKPYFLVRFPDGTAALYERKGDKWELIATVPVPPDSRIFFKGSAGGSAGG [r6_475_TrMRF]  1.12 ± 0.041 kcal/mol
8. SAIVLVVADDSPEEAVERARRFAATLRERLVREGYPDADVPIVVEVRAVPPPVPVPVRLPDGDEVVPAPSAG [r14_475_TrMRF]  1.32 ± 0.064 kcal/mol
9. SAGGSAGGSAGLDNIKPEELKKLFPGYKVYLLKVEEVGGKLKVDVKILKYNPSTNTWTPESAGGSAGGSAGG [r11_20_TrMRF]  1.48 ± 0.11 kcal/mol
10. SAGGPLTLEDLKNMPPGEKLEFTFGGYTYEVEIYKNDNGPPYITVKQRDPHDGEPVEEKRVPADDIVSAGGS [r16_763_TrROS]  1.58 ± 0.058 kcal/mol
11. SAGGSAEIEVTVYYDPETGEILVLINFPDETKFEVAVEEFKKLFEKVEAVKLPDGSVLVRSPLKDASAGGSA [r15_1057_TrMRF]  1.59 ± 0.12 kcal/mol
12. SAGGSAGGSEEKKIKIKIKIERDPENPNTYRITIEDEETGERYELEITVPPPKPKVFFFPKKKSAGGSAGGS [r12_985_TrROS_Hall]  2.18 ± 0.17 kcal/mol
13. SAGEVELKIVLPKEEIEKILEALRKLAEEAGLEVEVEKIEKKEDGYYVITVTVKFKETEKEIKIEIIIPSAG [r5_41_TrROS_Hall]  2.69 ± 0.31 kcal/mol
14. SAGGSDVEIEVFENAIIITIPLDLDNGKGETVEVRIIAPFTPDGRPIFRIEVINPDSDEVVTFTFPSAGGSA [r2_484_TrMRF]  2.71 ± 0.068 kcal/mol
15. SAGLKVKIVKAEVKNGYLTLEVEVTGKDGSKKPFKIKIKLKPVPKPKPVFKFTKLPNGEIKVEVFDPSSAGG [r19_172_TrMRF]  3.04 ± 0.08 kcal/mol
16. SATLTFTATLPDGSRVLEVTAEPRPDGTVTIRMRAEFTFAPGVTVTVPATITVPVPPPPALPPDDPRLFSAG [r14_95_TrMRF]  3.09 ± 0.086 kcal/mol
17. SAMKTEVIEFENFTIVVEELPDGSKKIIILFENPEKAKEALEKNPWIKEFIAEAEKEGYDVELAVVEPESAG [r14_873_TrMRF]  3.21 ± 0.085 kcal/mol
18. SAMILLIKIENKNDGKEFIIEITPNKITIYDKKTGKKYEITVDGNTITIKINGKTYKAKIKEVIPEEELSAG [r14_208_TrROS_Hall]  3.54 ± 0.49 kcal/mol
19. SAGGSAGGSDPEFELVRVEVFPFPTATLVRAVARFPPTDEYVEVELVHFPVPDRVLLRVRLLPSAGGSAGGS [r12_14_TrMRF]  3.58 ± 0.097 kcal/mol
20. SAGGSMKPAKKITFTFPDGRKAEIFFYPEEDTIELRIYFPETGTFVEIPVKSPEDLIETLKKLLAESAGGSA [r2_70_TrMRF]  3.75 ± 0.16 kcal/mol
21. SAGKKVVIIEIEEVTNEDGEKEYKIRVLVKDEETGEVTEREITVKEGESIEDLIKKALEEGADEVIIVPSAG [r5_37_TrROS_Hall]  4.12 ± 0.25 kcal/mol

Test: folding stability dG unfold from trypsin proteolysis; higher = more stable
In short: as §1

In order of rising “folding stability dG unfold” value:
1. SAGGSAGGSKEPIRVDEFEWRKNKDGMDMVQVTFPNNGKDIHLPPEHLDNLEPGDEIPLDDLISAGGSAGGS [r20_3_TrROS]  -0.677 ± 0.12 kcal/mol
2. SAGGSAGGSGPMDDPVPPRFSVETSVSPVALPPEFVAYVAAHPEEVDAVYTTTVVVLEEGPAGSAGGSAGGS [r12_196_JUSTAS]  -0.559 ± 0.075 kcal/mol
3. SAGGSAGPLERKVIVRTAPYTSPEEGEAYAEETKLAIASKLPESEKVTVEVTWDPETNTVTATIVSSAGGSA [r15_981_JUSTAS]  -0.491 ± 0.28 kcal/mol
4. SAGGKPLTVEDAKELAESLAKPLKEELGLGNVKILAAPVEVGGEEGKPAEVRIGFLFDLSEDGEFVGSAGGS [r16_751_TrMRF]  -0.405 ± 0.31 kcal/mol
5. SAGKEIIIPFRDIPPKYIKNQLKKFPPGKEIRIMFPGPEVADYLKEKGFPVRPERIKPITPDDMAKMMNSAG [r5_354_TrROS]  -0.149 ± 0.4 kcal/mol
6. SAGGSAGGSPDVVVPATLTFPLDAVAKAEFYPDGTVKVTFPDNTVALAKVEGGVVTDVRLAPASAGGSAGGS [r12_749_TrMRF]  0.0343 ± 0.031 kcal/mol
7. SAGGSAMNPKLEALPEVEITEEKTEEYKTAENKKLLVKEYKSNAEPGKTYKVIYDPETGKVLSVEESAGGSA [r15_66_JUSTAS]  0.0954 ± 0.059 kcal/mol
8. SAGGKTIPIWFRVPPGMTPEEAADELADEIANELQQQNGKEIEIKIDDVEPNPNGWNIVRIKIEVDPSAGGS [r8_156_TrROS]  0.176 ± 0.3 kcal/mol
9. SAGGSAGGSAGGSELIFKTEDGYYVKVKLKNGKTIVFPAENLEELKKLNVEKVEVVPAKSAGGSAGGSAGGS [r4_348_TrROS_Hall]  0.332 ± 0.039 kcal/mol
10. SAIVLVVADDSPEEAVERARRFAATLRERLVREGYPDADVPIVVEVRAVPPPVPVPVRLPDGDEVVPAPSAG [r14_475_TrMRF]  0.647 ± 0.1 kcal/mol
11. SAGGPDELELVIVFPAEALGTGEGGEPYTAEDIAEAIKKELPKDEVEVEIAEIDEETGEIVVTVKVPSAGGS [r16_284_TrMRF]  0.747 ± 0.13 kcal/mol
12. SGMERTPLTPTETVTLTIPPGSLTITPTASPGPLTVTVTVPGSGTPTVVELPVEAPDLDAALAAVVAALQSA [r9_982_JUSTAS]  0.787 ± 0.04 kcal/mol
13. SAGGSAGGEIPADAEIEEFEFGGKPYFLVRFPDGTAALYERKGDKWELIATVPVPPDSRIFFKGSAGGSAGG [r6_475_TrMRF]  0.946 ± 0.037 kcal/mol
14. SAGGPLTLEDLKNMPPGEKLEFTFGGYTYEVEIYKNDNGPPYITVKQRDPHDGEPVEEKRVPADDIVSAGGS [r16_763_TrROS]  0.956 ± 0.032 kcal/mol
15. GLEVKVDITVDPVGGGTRIPVTVSVPGRPIAQATADVDPETGVVNLDLGAESEEERKAALEKLKEAGIKLGS [r1_455_JUSTAS]  1.1 ± 0.049 kcal/mol
16. SAGGSAGGSAGGSGMTPIPLEVLERKVTEYDPKNGKITVEALAILPDGTPVKLKFTVELSAGGSAGGSAGGS [r4_184_JUSTAS]  1.11 ± 0.042 kcal/mol
17. SAGGSAGGSAGLDNIKPEELKKLFPGYKVYLLKVEEVGGKLKVDVKILKYNPSTNTWTPESAGGSAGGSAGG [r11_20_TrMRF]  1.13 ± 0.044 kcal/mol
18. SAGGSAGGSAGGGSMVTVPVTTESTTTVPPGAPAVEAAPVDPATATVSTTTSSTSLVASSAGGSAGGSAGGS [r10_82_JUSTAS]  1.22 ± 0.081 kcal/mol
19. SAGGMSLHIPLPANNEELAEELAEELRDLYAAIPGTPGEVEVDIEPTPEGGYRLIVRFPDHVDEIPASAGGS [r16_356_TrMRF]  1.3 ± 0.014 kcal/mol
20. SAGGSAGGSYLDPNKVYLVETEVVGDKVVFTLRDPETGETFVLEADASKEVLKPGDRVLALVASAGGSAGGS [r12_525_TrMRF]  1.47 ± 0.047 kcal/mol
21. SAGGSAEIEVTVYYDPETGEILVLINFPDETKFEVAVEEFKKLFEKVEAVKLPDGSVLVRSPLKDASAGGSA [r15_1057_TrMRF]  1.65 ± 0.12 kcal/mol
22. SAGGSAGGSKIEFTVPDNDELIEYIRKWFQDNGGQIKNIKIEPTPPNQVKVEIEINPGDPWFQSAGGSAGGS [r12_647_TrROS]  1.74 ± 0.041 kcal/mol
23. SAGGSAGGSAFVWNPDTGTFIQLDPNDGTIEVFEIENDNDGKLEPIGTVEVDPDDPDKGTITSAGGSAGGSA [r18_448_TrROS]  1.75 ± 0.13 kcal/mol
24. KTITIVVKVPSLEEVEALAAELAKELNLPPGAKVEVKVEYDEETGYVVVTVTVTNPNGEKIEIKIVVELPDS [r1_84_TrROS_Hall]  1.86 ± 0.1 kcal/mol
25. SAGGSAGGSEEKKIKIKIKIERDPENPNTYRITIEDEETGERYELEITVPPPKPKVFFFPKKKSAGGSAGGS [r12_985_TrROS_Hall]  2.24 ± 0.023 kcal/mol
26. SAGLKEIAKKLGLSEEKIKIKEIKKKKKVVYDKKTKKKYEKEEIVIKIEIVDPKTKKKYEIEIPLEEIKSAG [r5_517_TrROS_Hall]  2.28 ± 0.18 kcal/mol
27. SMITIEINVGNKKYTVEIVPEKGIIKITDPNGTPIGEGEIKPDSIDITLTKPNTDETYKFTFPIPPESLPSA [r9_963_JUSTAS]  2.29 ± 0.1 kcal/mol
28. SAGGSAMVYLVTVTIKSEGKEVRYKEWVESDEPEKLIEKVKKEYPNEEIKVEITPFPSKEEAEKLLSAGGSA [r15_889_JUSTAS]  2.36 ± 0.098 kcal/mol
29. SANWHRFTIEAWVPVRDPNGKPIRPEQVEEQAERIANELWPRGFPIKDVTVEQHPDGWVRITATIEVPDSAG [r14_470_TrROS]  2.47 ± 0.08 kcal/mol
30. SAGGSDVEIEVFENAIIITIPLDLDNGKGETVEVRIIAPFTPDGRPIFRIEVINPDSDEVVTFTFPSAGGSA [r2_484_TrMRF]  2.66 ± 0.081 kcal/mol
31. SATLTFTATLPDGSRVLEVTAEPRPDGTVTIRMRAEFTFAPGVTVTVPATITVPVPPPPALPPDDPRLFSAG [r14_95_TrMRF]  2.73 ± 0.057 kcal/mol
32. SAGLKVKIVKAEVKNGYLTLEVEVTGKDGSKKPFKIKIKLKPVPKPKPVFKFTKLPNGEIKVEVFDPSSAGG [r19_172_TrMRF]  2.76 ± 0.062 kcal/mol
33. SAGGSAGGSAGGMTLEEVKKALEELGIKEENQTVTIELEDGSKVKITVKDGKVVLEVEPSAGGSAGGSAGGS [r10_604_TrROS_Hall]  2.81 ± 0.18 kcal/mol
34. SMETLEIEITVKVEKDENGKIRKVSVEELKEELEKAGFKITEIEITEVTENTVKIKIKIEKPEEEEEEEESA [r9_225_TrROS_Hall]  2.97 ± 0.36 kcal/mol
35. SAGEVELKIVLPKEEIEKILEALRKLAEEAGLEVEVEKIEKKEDGYYVITVTVKFKETEKEIKIEIIIPSAG [r5_41_TrROS_Hall]  3 ± 0.51 kcal/mol
36. SAGGSAGGSDPEFELVRVEVFPFPTATLVRAVARFPPTDEYVEVELVHFPVPDRVLLRVRLLPSAGGSAGGS [r12_14_TrMRF]  3.07 ± 0.064 kcal/mol
37. SAMKTEVIEFENFTIVVEELPDGSKKIIILFENPEKAKEALEKNPWIKEFIAEAEKEGYDVELAVVEPESAG [r14_873_TrMRF]  3.21 ± 0.12 kcal/mol
38. SAMILLIKIENKNDGKEFIIEITPNKITIYDKKTGKKYEITVDGNTITIKINGKTYKAKIKEVIPEEELSAG [r14_208_TrROS_Hall]  3.23 ± 0.2 kcal/mol
39. SAGGSAGAPLVLAEVELDPETGEVRIRVYDPVTGKVYEYTTPGSLADAIREIERETGIPITEVVVASAGGSA [r15_101_TrMRF]  3.47 ± 0.099 kcal/mol
40. SAGEIKIEIKKNKNGKLTIRITVKKKDGEEKEIEIEVPENMTAEELAKELEKKGFEITEIKSIEELLKSAGG [r19_263_TrROS_Hall]  3.89 ± 0.34 kcal/mol
41. SAGKKVVIIEIEEVTNEDGEKEYKIRVLVKDEETGEVTEREITVKEGESIEDLIKKALEEGADEVIIVPSAG [r5_37_TrROS_Hall]  3.98 ± 0.13 kcal/mol
42. SAGGSMKPAKKITFTFPDGRKAEIFFYPEEDTIELRIYFPETGTFVEIPVKSPEDLIETLKKLLAESAGGSA [r2_70_TrMRF]  4.02 ± 0.16 kcal/mol

Reference: the supplement of paper PMC12764529
